Results: publication PMC4876437, “Novel application of hydrophobin in medical science: a drug carrier for improving serum stability” (Scientific Reports, 2016)

How the values were obtained:
[1] = Stabilization (serum stability / pharmacokinetic) study: circulating free GLP-1 in rats by GLP-1 (7-37) ELISA; format: in vivo; conditions: Wistar rats, s.c., 500 μg GLP-1/kg, n = 6 per group
Protocol: The stabilities of wild-type hydrophobin/GLP-1 and hydrophobin E24K/GLP-1 complexes were investigated to determine whether the complex protects GLP-1 against protease degradation. Two complexes, hydrophobin/GLP-1 (pH 7.0, molar ratio of 1:10) and hydrophobin E24K/GLP (pH 4.0, molar ratio of 1:10) were administered subcutaneously to male Wistar rats (500 μg GLP-1/kg body weight, n = 6 per group), and blood samples from the rats were directly drawn into P700*, K2EDTA tubes (BD Biosciences, Franklin Lakes, NJ) by venipuncture at 0.5, 1, 4, 12, 24, 48, 72 and 96 h. Serum samples (200 μl) were immediately analyzed using a native GLP-1 (7-37) ELISA kit after being centrifuged for 20 min at 13,000 rpm. The amount of free GLP-1 measured in this assay was considered an indicator of the serum serum stability of the complex.

insulin secretion = test: Insulin stimulation assay after oral glucose administration; format: in vivo; conditions: Wistar rats, s.c. 100 μg GLP-1/kg 30 min before oral glucose 10 g/kg, n = 3 per group, mean ± SE
Protocol: The insulin secretion assay was performed by injecting the complex (100 μg GLP-1/kg body weight) into male Wistar rats (n = 3 per group). Wild-type GLP-1 (100 μg/kg body weight) and saline were injected subcutaneously as controls. Glucose (10 g/kg body weight, a standard dose for oral glucose administration) was orally administered 30 min after injections of the complexes. […] Blood samples were assayed for insulin levels using a rat insulin RIA kit.

INS-1 cells = test: cAMP accumulation measurement (HTRF); format: cell-based, rat
Protocol: For the cAMP assay, INS-1 cells (1.0 × 10^5 cells) were seeded and plated in each well of a 96-well opaque white plate. […] Subsequently, 10 μg of GLP-1 or complex was added. The assay plate was treated with 2.5 μl/well cAMP and an equal volume of anti-cAMP conjugate (Cisbio) after a 1 h incubation. The homogenous time-resolved fluorescence (HTRF) signal was read on a SpectraMax M5 (Molecular Device) microplate reader. The ratio of […] at 665 nm and 620 nm (×10,000) was calculated and plotted.

blood glucose = test: Single-dose glucoregulatory assay (glucose tolerance test); format: in vivo; conditions: Wistar rats, GLP-1 alone, glucose 2 g/kg i.p.
blood glucose and HbA1c = test: Long-term anti-diabetic activity (glucose, HbA1c) over 46 days; format: in vivo; conditions: ZDF rats, 250 μg/kg body weight every three days, glucometer
Protocol: Male ZDF rats (n = 11 per group) were treated with complex (250 μg/kg/3 days) for the entire experimental period (46 days). The control groups were injected with wild-type GLP-1 (250 μg/3 days). HbA1c levels were assessed using a DCA 200 analyzer (Bayer Diagnostics), and glucose levels were monitored during the experimental period.

[2] = system: dipeptidyl peptidase IV (DPP-IV); conditions: cited from earlier work
Excerpt: The extremely poor serum stability renders the therapeutic administration of GLP-1 impractical; therefore, many efforts have focused on altering the pharmacokinetic properties of GLP-1 by developing a series of complexes and analogs, such as exenatide, liraglutide and albiglutide. […] In ad ...

[3] = molecular target: hydrophobin E24K (mutated at the 24th residue)
[4] = molecular target: wild-type hydrophobin protein (HGFI)

| AUC of free GLP-1 in the serum of Wistar rats within 96 h after subcutaneous injection of the complex, fold over GLP-1 alone (GLP-1 (7-37) ELISA) [3] | AUC of free GLP-1 in the serum of Wistar rats within 96 h after subcutaneous injection of the complex, fold over GLP-1 alone (GLP-1 (7-37) ELISA) [4] | Substance | time after administration at which circulating GLP-1 was undetectable [1] | insulin level at 5 min after oral glucose (insulin secretion) | peak cellular cAMP level (INS-1 cells; INS-1 cells 1.0 × 10^5, 500 μM IBMX, 10 μg GLP-1, at 2 min, HTRF, mean ± SE) | time at which cAMP declined to baseline (INS-1 cells; INS-1 cells, HTRF-cAMP kit) | time of cAMP peak (INS-1 cells; INS-1 cells, HTRF-cAMP kit) | blood glucose in single-dose glucose tolerance test (blood glucose) | long-lasting glucose regulatory effect (blood glucose and HbA1c) | renal clearance (time) ([2]; in vivo) | lifetime in vivo ([2]; native GLP-1, in vivo, inactivation by DPP-IV) | serum stability of GLP-1 ([2]; rapid degradation by DPP-IV) |
| --- | --- | --- | --- | --- | --- | --- | --- | --- | --- | --- | --- | --- |
|  |  | glucagon-like peptide-1 [GLP-1] | 4 h | 827.09 ± 37.77 pmol/L | 17.03 ± 0.94 pmol/10^5 cells | 10 min | 2 min | remained at high levels | failed to produce a similar glucose regulatory effect | less than 10 min | < 2 min | 3 to 5 min |
| 3 fold | 6.3 fold | glucagon-like peptide-1 (GLP-1) |  |  |  |  |  |  |  |  |  |  |
